Measured values from patent US12018081B1, “Photoconjugation reactions for modification of specific proteins on live cells” (The Regents of the University of Colorado, a body, priority 2019, dated 2024).

B1: CodA: Cytosine deaminase, bacterial enzyme of E. coli, alone without affibody (protein, UniProt P25524 2-427, looked up)
Cytosine deaminase: SNNALQTIINARLPGEEGLWQIHLQDGKISAIDAQSGVMPITENSLDAEQGLVIPPFVEPHIHLDTTQTAGQPNWNQSGTLFEGIERWAERKALLTHDDVKQRAWQTLKWQIANGIQHVRTHVDVSDATLTALKAMLEVKQEVAPWIDLQIVAFPQEGILSYPNGEALLEEALRLGADVVGAIPHFEFTREYGVESLHKTFALAQKYDRLIDVHCDEIDDEQSRFVETVAALAHHEGMGARVTASHTTAMHSYNGAYTSRLFRLLKMSGINFVANPLVNIHLQGRFDTYPKRRGITRVKEMLESGINVCFGHDDVFDPWYPLGTANMLQVLHMGLHVCQLMGYGQINDGLNLITHHSARTLNLQDYGIAAGNSANLIILPAENGFDALRRQVPVRYSVRGGKVIASTQPAQTTVYLEQPEAIDYKR

Key:
[1] = tested on: MDA-MB-468 cells; type: cell-based, human; conditions: drug or prodrug only, no protein, FIG. 4
Experimental: Finally, having established both the photocrosslinking of the […] affibody-enzyme to EGFR on living cells and retention of protein expression before and after endocytosis, the enzymatic activity of the fusion proteins was then leveraged for cell killing by prodrug conversion. […] Next, prodrug therapy experiments were run against MDA-MB-468 cells in vitro. In 96-well plates, cells were incubated with 1 μM of WT-CodA, N23-CodA, or CodA alone. As before, after 3 h the cells were irradiated with 365 nm light for 30 min followed by further incubation to a total time of 8, 24, or 48 h. When each time point was reached, the excess affibody-enzymes were removed by washing the cells three times with PBS, and 2 mM of 5-FC was added. […] After 12 h incubation with 5-FC, excess pro-drug was removed, cells were washed with PBS, and viability was measured by MTT assay. […]
Prodrug Cytotoxicity (MTT) Assays: The MDA-MB-468 cells were grown to confluence, after which the cells were washed once with DPBS (Gibco) and then trypsinized with 0.025% trypsin-EDTA (Gibco). […] The crystals were dissolved in 100 μL isopropyl alcohol (IPA), and absorbance from the wells was measured at 570 nm in a Tecan Safire II Multimode Plate reader. The readings were then normalized to the cells that were treated with neither enzyme, enzyme-affibody, nor 5-FC/5-FU to calculate the fractional viability. […]

[2] = molecular target: Extracellular domain of purified human EGFR (Sino Biological) (human) (UniProt P00533); test: microscale thermophoresis, AF647-labelled soluble EGFR, fusion protein titrated
[3] = molecular target: EGFR expressed on live MDA-MB-468 human breast carcinoma cells (human) (UniProt P00533); test: cell-based or functional assay
[4] = Affibody-enzyme kinetic activity assay with cytosine (UV-Vis); type: biochemical; conditions: 50 nM enzyme, cytosine 100-250 μM, 50 mM Tris-HCl pH 7.5
Experimental: Affibody-enzyme Kinetic Activity Assays with Cytosine: The enzymatic assay for N23-CodA, WT-CodA, and CodA were performed by varying substrate concentration and measuring the absorbance using a UV-VIS spectrophotometer (Agilent Technologies, Cary Series 100). A stock of 10 mM cytosine was prepared in 50 mM Tris-HCl at pH 7.5. Varying concentrations (250, 200, 150 and 100 μM) of cytosine solution were prepared from the stock and mixed with 50 nM of the enzyme and enzyme-affibodies. The reaction was run for 15 min with OD267 (cytosine) and OD260 (uracil) readings taken every 12 s. The concentration of cytosine was calculated for each time point and the kinetic parameters KM and kcat were calculated using the methods of initial rates and double reciprocal plots.

[5] = reported value for free CodA; cited from earlier work

Row | Molecule | baseline viability (cell viability fraction) [1] | Kd [2] [nM] | further results
1 | Nc1nc(=O)[nH]cc1F [5-FC, 5-fluorocytosine] | 0.854 |  | 
2 | O=c1[nH]cc(F)c(=O)[nH]1 [5-FU, 5-fluorouracil] | 0.467 |  | 
3 | BP-modified mutant affibody-enzyme (N23C ZEGFR:1907 affibody with benzophenone, fused to cytosine deaminase) (from UniProt P25524 2-427) (designed binder) |  | 44 | cell viability of MDA-MB-468 cells by MTT assay after 5-FC prodrug [3]: 50 to 55%
4 | WT affibody-fused CodA (ZEGFR:1907 affibody fused to cytosine deaminase) (from UniProt P25524 2-427) (designed binder) |  | 25 | 
5 | B1 |  |  | Km [4]: 2520 µM; kcat [4]: 53.57 s⁻¹; melting temperature, reported value [5]: 85 °C
